Data taken from patent US20170355744A1 (published 2017).
Residue numbers refer to the chain shown, from its start. Where “and” joins values, the source holds several entries; their conditions need not be identical. Identical values can stand only once.

B1: Naglu-Rigid-IGF-II (SEQ ID NO: 566) (enzyme)
chain: DEAREAAAVRALVARLLGPGPAADFSVSVERALAAKPGLDTYSLGGGGAARVRVRGSTGVAAAAGLHRYLRDFCGCHVAWSGSQLRLPRPLPAVPGELTEATPNRYRYYQNVCTQSYSFVWWDWARWEREIDWMALNGINLALAWSGQEAIWQRVYLALGLTQAEINEFFTGPAFLAWGRMGNLHTWDGPLPPSWHIKQLYLQHRVLDQMRSFGMTPVLPAFAGHVPEAVTRVFPQVNVTKMGSWGHFNCSYSCSFLLAPEDPIFPIIGSLFLRELIKEFGTDHIYGADTFNEMQPPSSEPSYLAAATTAVYEAMTAVDTEAVWLLQGWLFQHQPQFWGPAQIRAVLGAVPRGRLLVLDLFAESQPVYTRTASFQGQPFIWCMLHNFGGNHGLFGALEAVNGGPEAARLFPNSTMVGTGMAPEGISQNEVVYSLMAELGWRKDPVPDLAAWVTSFAARRYGVSHPDAGAAWRLLLRSVYNCSGEACRGHNRSPLVRRPSLQMNTSIWYNRSDVFEAWRLLLTSAPSLATSPAFRYDLLDLTRQAVQELVSLYYEEARSAYLSKELASLLRAGGVLAYELLPALDEVLASDSRFLLGSWLEQARAAAVSEAEADFYEQNSRYQLTLWGPEGNILDYANKQLAGLVANYYTPRWRLFLEALVDSVAQGIPFQQHQFDKNVFQLEQAFVLSKQRYPSQPRGDTVDLAKKIFLKYYPRWVAGSWGAPGGGSPAPAPTPAPAPTPAPAGGGPSGAPLCGGELVDTLQFVCGDRGFYFSRPASRVSARSRGIVEECCFRSCDLALLETYCATPAKSE
notes: also called Naglu fusion protein
B2: Naglu-(GGGGS)4GGGPS-IGF-II (SEQ ID NO: 568) (enzyme)
chain: DEAREAAAVRALVARLLGPGPAADFSVSVERALAAKPGLDTYSLGGGGAARVRVRGSTGVAAAAGLHRYLRDFCGCHVAWSGSQLRLPRPLPAVPGELTEATPNRYRYYQNVCTQSYSFVWWDWARWEREIDWMALNGINLALAWSGQEAIWQRVYLALGLTQAEINEFFTGPAFLAWGRMGNLHTWDGPLPPSWHIKQLYLQHRVLDQMRSFGMTPVLPAFAGHVPEAVTRVFPQVNVTKMGSWGHFNCSYSCSFLLAPEDPIFPIIGSLFLRELIKEFGTDHIYGADTFNEMQPPSSEPSYLAAATTAVYEAMTAVDTEAVWLLQGWLFQHQPQFWGPAQIRAVLGAVPRGRLLVLDLFAESQPVYTRTASFQGQPFIWCMLHNFGGNHGLFGALEAVNGGPEAARLFPNSTMVGTGMAPEGISQNEVVYSLMAELGWRKDPVPDLAAWVTSFAARRYGVSHPDAGAAWRLLLRSVYNCSGEACRGHNRSPLVRRPSLQMNTSIWYNRSDVFEAWRLLLTSAPSLATSPAFRYDLLDLTRQAVQELVSLYYEEARSAYLSKELASLLRAGGVLAYELLPALDEVLASDSRFLLGSWLEQARAAAVSEAEADFYEQNSRYQLTLWGPEGNILDYANKQLAGLVANYYTPRWRLFLEALVDSVAQGIPFQQHQFDKNVFQLEQAFVLSKQRYPSQPRGDTVDLAKKIFLKYYPRWVAGSWGGGGSGGGGSGGGGSGGGGSGGGPSLCGGELVDTLQFVCGDRGFYFSRPASRVSARSRGIVEECCFRSCDLALLETYCATPAKSE
notes: The construct encodes full-length Naglu 1-743 with its signal peptide; also called Naglu fusion protein; GILT-tagged Naglu-IGF-II fusion protein
B3: Naglu-(GGGGA)4GGGPS-IGF-II (SEQ ID NO: 569) (enzyme)
chain: B2 chain with S725A, S730A, S735A, S740A
notes: as for B1
B4: Naglu-XTEN-IGF-II (SEQ ID NO: 565) (enzyme)
chain: DEAREAAAVRALVARLLGPGPAADFSVSVERALAAKPGLDTYSLGGGGAARVRVRGSTGVAAAAGLHRYLRDFCGCHVAWSGSQLRLPRPLPAVPGELTEATPNRYRYYQNVCTQSYSFVWWDWARWEREIDWMALNGINLALAWSGQEAIWQRVYLALGLTQAEINEFFTGPAFLAWGRMGNLHTWDGPLPPSWHIKQLYLQHRVLDQMRSFGMTPVLPAFAGHVPEAVTRVFPQVNVTKMGSWGHFNCSYSCSFLLAPEDPIFPIIGSLFLRELIKEFGTDHIYGADTFNEMQPPSSEPSYLAAATTAVYEAMTAVDTEAVWLLQGWLFQHQPQFWGPAQIRAVLGAVPRGRLLVLDLFAESQPVYTRTASFQGQPFIWCMLHNFGGNHGLFGALEAVNGGPEAARLFPNSTMVGTGMAPEGISQNEVVYSLMAELGWRKDPVPDLAAWVTSFAARRYGVSHPDAGAAWRLLLRSVYNCSGEACRGHNRSPLVRRPSLQMNTSIWYNRSDVFEAWRLLLTSAPSLATSPAFRYDLLDLTRQAVQELVSLYYEEARSAYLSKELASLLRAGGVLAYELLPALDEVLASDSRFLLGSWLEQARAAAVSEAEADFYEQNSRYQLTLWGPEGNILDYANKQLAGLVANYYTPRWRLFLEALVDSVAQGIPFQQHQFDKNVFQLEQAFVLSKQRYPSQPRGDTVDLAKKIFLKYYPRWVAGSWGAPGGSPAGSPTSTEEGTSESATPESGPGTSTEPSEGSAPGSPAGSPTSTGPSGAPLCGGELVDTLQFVCGDRGFYFSRPASRVSARSRGIVEECCFRSCDLALLETYCATPAKSE
notes: as for B1
B5: Naglu-Helical-IGF-II (SEQ ID NO: 567) (enzyme)
chain: DEAREAAAVRALVARLLGPGPAADFSVSVERALAAKPGLDTYSLGGGGAARVRVRGSTGVAAAAGLHRYLRDFCGCHVAWSGSQLRLPRPLPAVPGELTEATPNRYRYYQNVCTQSYSFVWWDWARWEREIDWMALNGINLALAWSGQEAIWQRVYLALGLTQAEINEFFTGPAFLAWGRMGNLHTWDGPLPPSWHIKQLYLQHRVLDQMRSFGMTPVLPAFAGHVPEAVTRVFPQVNVTKMGSWGHFNCSYSCSFLLAPEDPIFPIIGSLFLRELIKEFGTDHIYGADTFNEMQPPSSEPSYLAAATTAVYEAMTAVDTEAVWLLQGWLFQHQPQFWGPAQIRAVLGAVPRGRLLVLDLFAESQPVYTRTASFQGQPFIWCMLHNFGGNHGLFGALEAVNGGPEAARLFPNSTMVGTGMAPEGISQNEVVYSLMAELGWRKDPVPDLAAWVTSFAARRYGVSHPDAGAAWRLLLRSVYNCSGEACRGHNRSPLVRRPSLQMNTSIWYNRSDVFEAWRLLLTSAPSLATSPAFRYDLLDLTRQAVQELVSLYYEEARSAYLSKELASLLRAGGVLAYELLPALDEVLASDSRFLLGSWLEQARAAAVSEAEADFYEQNSRYQLTLWGPEGNILDYANKQLAGLVANYYTPRWRLFLEALVDSVAQGIPFQQHQFDKNVFQLEQAFVLSKQRYPSQPRGDTVDLAKKIFLKYYPRWVAGSWGAPGGGSPAEAAAKEAAAKEAAAKEAAAKEAAAKAPSGGGGAPLCGGELVDTLQFVCGDRGFYFSRPASRVSARSRGIVEECCFRSCDLALLETYCATPAKSE
notes: as for B1

Each binder was assayed against T1, CI-MPR receptor on human MPS IIIB fibroblasts (human), P11717 (assay: cell-based or functional assay).
T1 sequence (P11717 41-2491): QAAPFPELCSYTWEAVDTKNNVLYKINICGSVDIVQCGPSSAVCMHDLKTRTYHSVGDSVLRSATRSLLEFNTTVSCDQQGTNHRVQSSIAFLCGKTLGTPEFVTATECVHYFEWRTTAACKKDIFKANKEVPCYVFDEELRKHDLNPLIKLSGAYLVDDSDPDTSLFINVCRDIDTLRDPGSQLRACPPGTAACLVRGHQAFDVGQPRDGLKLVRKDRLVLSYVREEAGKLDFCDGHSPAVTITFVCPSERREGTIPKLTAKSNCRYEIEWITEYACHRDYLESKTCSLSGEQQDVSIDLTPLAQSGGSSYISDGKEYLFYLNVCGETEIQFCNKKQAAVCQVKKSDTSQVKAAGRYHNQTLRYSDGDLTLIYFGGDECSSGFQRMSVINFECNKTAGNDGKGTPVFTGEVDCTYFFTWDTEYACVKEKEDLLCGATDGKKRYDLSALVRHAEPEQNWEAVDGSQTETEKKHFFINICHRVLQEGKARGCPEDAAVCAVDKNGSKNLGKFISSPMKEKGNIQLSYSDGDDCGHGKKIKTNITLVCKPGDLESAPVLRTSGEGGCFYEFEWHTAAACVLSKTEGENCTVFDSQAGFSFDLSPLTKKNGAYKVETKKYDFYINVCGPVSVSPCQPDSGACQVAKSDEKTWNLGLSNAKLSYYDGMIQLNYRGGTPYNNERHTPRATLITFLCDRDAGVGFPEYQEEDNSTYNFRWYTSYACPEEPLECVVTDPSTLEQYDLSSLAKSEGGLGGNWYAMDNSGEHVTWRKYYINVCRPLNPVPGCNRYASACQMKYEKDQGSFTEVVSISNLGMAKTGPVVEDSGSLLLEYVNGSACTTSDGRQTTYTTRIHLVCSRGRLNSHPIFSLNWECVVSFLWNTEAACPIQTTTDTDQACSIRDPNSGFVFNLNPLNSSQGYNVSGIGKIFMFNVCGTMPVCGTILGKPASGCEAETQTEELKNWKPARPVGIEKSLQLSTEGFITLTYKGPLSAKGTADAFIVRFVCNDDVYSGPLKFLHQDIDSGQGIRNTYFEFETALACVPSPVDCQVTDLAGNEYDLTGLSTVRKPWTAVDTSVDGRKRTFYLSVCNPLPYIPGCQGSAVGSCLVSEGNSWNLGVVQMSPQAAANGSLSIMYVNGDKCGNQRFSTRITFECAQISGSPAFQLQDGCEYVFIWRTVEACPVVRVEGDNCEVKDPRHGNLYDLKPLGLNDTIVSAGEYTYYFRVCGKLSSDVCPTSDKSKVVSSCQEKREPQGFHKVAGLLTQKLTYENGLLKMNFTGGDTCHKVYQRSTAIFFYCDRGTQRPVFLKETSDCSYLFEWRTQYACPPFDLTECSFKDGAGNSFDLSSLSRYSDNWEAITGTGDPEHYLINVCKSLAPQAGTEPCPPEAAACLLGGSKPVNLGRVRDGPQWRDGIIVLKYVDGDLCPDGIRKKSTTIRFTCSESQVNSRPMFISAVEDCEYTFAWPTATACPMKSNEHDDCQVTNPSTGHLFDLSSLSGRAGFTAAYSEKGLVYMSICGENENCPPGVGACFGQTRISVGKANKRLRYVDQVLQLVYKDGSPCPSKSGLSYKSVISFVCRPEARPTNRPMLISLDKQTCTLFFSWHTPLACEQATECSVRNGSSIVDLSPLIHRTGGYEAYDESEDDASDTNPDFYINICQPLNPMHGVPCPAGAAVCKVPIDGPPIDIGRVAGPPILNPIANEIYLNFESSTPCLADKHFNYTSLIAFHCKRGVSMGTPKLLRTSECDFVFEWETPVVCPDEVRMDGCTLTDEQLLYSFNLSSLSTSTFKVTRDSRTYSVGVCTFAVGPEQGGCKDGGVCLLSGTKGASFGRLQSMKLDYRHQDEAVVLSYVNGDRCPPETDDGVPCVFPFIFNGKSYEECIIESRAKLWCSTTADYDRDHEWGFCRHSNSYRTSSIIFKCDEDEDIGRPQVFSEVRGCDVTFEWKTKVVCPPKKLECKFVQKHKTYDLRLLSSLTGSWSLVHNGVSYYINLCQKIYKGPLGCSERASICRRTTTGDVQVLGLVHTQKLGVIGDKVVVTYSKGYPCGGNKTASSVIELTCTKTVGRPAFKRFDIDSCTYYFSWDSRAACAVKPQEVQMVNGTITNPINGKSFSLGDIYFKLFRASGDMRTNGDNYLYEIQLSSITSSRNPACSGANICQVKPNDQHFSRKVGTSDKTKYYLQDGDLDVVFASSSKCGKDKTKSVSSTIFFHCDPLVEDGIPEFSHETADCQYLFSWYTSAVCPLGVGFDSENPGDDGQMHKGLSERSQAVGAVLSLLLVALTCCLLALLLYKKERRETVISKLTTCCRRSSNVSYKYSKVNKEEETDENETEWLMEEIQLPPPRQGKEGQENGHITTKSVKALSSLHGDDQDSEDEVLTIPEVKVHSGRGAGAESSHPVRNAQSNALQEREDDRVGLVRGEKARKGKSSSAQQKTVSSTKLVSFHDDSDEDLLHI

| Kuptake [nM] | Binder |
| --- | --- |
| 2.4 | B1 |
| 5.4 | B2 |
| 6.3 | B3 |
| 3.7 | B4 |
| 2.3 | B5 |

Target: T1, CI-MPR receptor on human MPS IIIB …
Assay: cell-based or functional assay
Remark: another data set of the same source

| Kuptake [nM] | Binder |
| --- | --- |
| 7 to 9 | B2 |

What follows are binders tested against T2, fragment of the IGFIIR involved with IGF-II binding (domains 10-13, named protein 1288) (UniProt P11717 1367-1989) (assay: IGF2R competitive binding assay, displacement of 8 nM biotinylated IGF-II from plate-coated IGFIIR domains 10-13).
T2 construct: domain: domains 10-13; Coated on the plate at 0.5 ug/well; also called IGF2R
T2 sequence (P11717 1367-1989 limits assumed): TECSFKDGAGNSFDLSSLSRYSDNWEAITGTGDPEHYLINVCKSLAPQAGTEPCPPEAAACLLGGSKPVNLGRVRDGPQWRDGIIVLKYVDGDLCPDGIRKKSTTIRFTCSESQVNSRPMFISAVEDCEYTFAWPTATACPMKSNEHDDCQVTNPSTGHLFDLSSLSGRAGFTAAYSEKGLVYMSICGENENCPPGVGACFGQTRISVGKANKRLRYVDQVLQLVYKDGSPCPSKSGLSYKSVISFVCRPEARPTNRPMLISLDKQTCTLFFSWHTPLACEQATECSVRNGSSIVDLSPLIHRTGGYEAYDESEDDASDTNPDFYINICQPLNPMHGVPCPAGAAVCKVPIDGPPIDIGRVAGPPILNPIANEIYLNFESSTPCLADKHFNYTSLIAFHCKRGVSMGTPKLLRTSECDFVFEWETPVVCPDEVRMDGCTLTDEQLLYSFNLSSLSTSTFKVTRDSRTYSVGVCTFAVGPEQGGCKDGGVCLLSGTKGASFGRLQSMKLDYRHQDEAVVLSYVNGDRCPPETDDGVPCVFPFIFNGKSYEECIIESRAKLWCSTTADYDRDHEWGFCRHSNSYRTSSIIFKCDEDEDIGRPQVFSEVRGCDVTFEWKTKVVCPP
Experimental: To measure the ability of the Naglu fusion protein constructs to bind to the IGF-II receptor a competitive binding assay is carried out. A fragment of the IGFIIR involved with IGF-II binding (domains 10-13, named protein 1288) is coated onto 96-well plates. Biotinylated IGF-II is incubated with the receptor in the presence of increasing amounts of competitors: either control IGF-II (non-biotinylated), or fusion protein sample (containing an IGF-II-derived GILT epitope tag). Receptor-bound biotinylated IGF-II is detected with streptavidin conjugated to horseradish peroxidase (HRP) and a chemiluminescent HRP substrate. The ability of the fusion protein to inhibit binding of biotinylated IGF-II to the IGFIIR is calculated from inhibition curves and reported as an IC₅₀ value (concentration required to achieve 50% binding inhibition).
For the assay, IGFIIR is coated in a white Reacti-bind plate (Pierce, Cat#437111) at 0.5 μg/well in a volume of 100 μl (69.6 nM/per well) in coating buffer. The plate is sealed and incubated overnight at room temperature. The plate is then washed 3× with wash buffer, blocked with blocking buffer and then washed again 3× with wash buffer (300 μl/well).

| IC50 | Binder |
| --- | --- |
| 0.23 nM | B1 |
| 0.27 nM and 0.23 nM | B2 |
| 0.36 nM | B3 |
| 0.24 nM | B4 |
| 0.25 nM | B5 |
